Assay results taken from the supplement of paper PMC9170038.

Test system: MS2 coat protein
Assay: apparent KD of MS2 coat protein; higher = weaker reporter binding
Conditions: Eterna round: R107
In short: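 Designed RNA switches were transcribed on-chip from Illumina sequencing clusters and titrated with SNAP-549-labelled MS2 coat protein in twofold steps from 0.7 or 1.5 nM up to 3 µM. Each step lasted 0.8–1.5 h at first and 10–20 min by the end, in 100 mM Tris-HCl pH 7.5, 80 mM KCl and 4 mM MgCl2, without or with constant ligand. Apparent KD is the median, for each design, of fits to normalised cluster binding curves.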

[1] = input ligand: theophylline 20 uM
[2] = input ligand: tryptophan 2.4 mM
[3] = input ligand: theophylline 2 mM

GCACCAGGUACGGAUACCAGACUCUGCCGAUUGGGUGAACAUGAGGAUCACCCAUGUUAGGUCCCUUGGCAGCCGUACCUGGUGC [#18 Exclusion-TheophyllineB]
apparent KD of MS2 coat protein (input ligand: arginine 13.2 mM): 26.4 nM | apparent KD of MS2 coat protein [1]: 73.5 nM | apparent KD of MS2 coat protein [2]: 30.3 nM

GCACCAGGUACGGAUACCAGCUAUAGGCCCUAUGGGCGACAUGAGGAUCACCCAUGUAAUGGCCCUUGGCAGCUGUACCUGGUGC [SSThB NP+V+V2 #10 +-Same Structure]
apparent KD of MS2 coat protein (input ligand: arginine 13.2 mM): 120 nM | apparent KD of MS2 coat protein [1]: 97.3 nM | apparent KD of MS2 coat protein [2]: 169 nM

GCACCAGGUACGGAUACCAGCUGCCAGCGUUACAUGAGGAUCACCCAUGUGAUCUGAUAUAGCCCUUGGCAGCUGUACCUGGUGC [SSThB NP+V+V2 #3 +-Same Structure]
apparent KD of MS2 coat protein (input ligand: arginine 13.2 mM): 43.4 nM | apparent KD of MS2 coat protein [1]: 416 nM | apparent KD of MS2 coat protein [2]: 49.6 nM

GCACUACAUGAGGAUCACCCAUGUGCAGAUACCAGAGGUGUAUGCCUCCCUUGGCAGCUGCGUCGCUCUGGCAGCUUGUGGGUUG [Same State Theophylline A GF18]
apparent KD of MS2 coat protein (input ligand: arginine 13.2 mM): 40.3 nM | apparent KD of MS2 coat protein [1]: 117 nM | apparent KD of MS2 coat protein [2]: 81.5 nM

GCCGGGCCCUCGGCCGCCACUGAGAGAGUCGUGUGAACAUGAGGAUCACCCAUGUAAUAUAUAUACAGGACCGGGAGGGCCCGGC [4.W]
apparent KD of MS2 coat protein (input ligand: arginine 13.2 mM): 11.9 nM | apparent KD of MS2 coat protein (input ligand: none): 13.3 nM | apparent KD of MS2 coat protein [1]: 21.8 nM | apparent KD of MS2 coat protein [3]: 13.9 nM | apparent KD of MS2 coat protein [2]: 11.9 nM

GCCUGGGAUACGGCCGCCACUACAUGAGGAUCACCCAUGUAAUAUUUAUUAGAAGAGAGGGUAUGUAGGACCGGGUAAGGAAGGC [e-trypB-0]
apparent KD of MS2 coat protein (input ligand: arginine 13.2 mM): 14.3 nM | apparent KD of MS2 coat protein (input ligand: none): 15.8 nM | apparent KD of MS2 coat protein [1]: 24.9 nM | apparent KD of MS2 coat protein [3]: 22.5 nM | apparent KD of MS2 coat protein [2]: 26 nM

GCGGUCGGAGUGCGGCGUGUUCCGCUCCGUCGAGGACCGGUACGGCCGCCACUCGACAUGAGGAUCACCCAUGUCCGACCGCGCG [#1 Exclusion - Tryptophan A Attempt #5 (HarryS)]
apparent KD of MS2 coat protein (input ligand: arginine 13.2 mM): 18.4 nM | apparent KD of MS2 coat protein (input ligand: none): 13.4 nM | apparent KD of MS2 coat protein [1]: 66.5 nM | apparent KD of MS2 coat protein [3]: 28.8 nM | apparent KD of MS2 coat protein [2]: 6.86 nM

GCGUGUUAUAGUCAUCGUGAGCGUCCAUCCCGAGGACCGGUACGGCCGCCACUCGCCACAGGACAUGAGGAUCACCCAUGUUAUG [theeternabot_exclusion_MS2_Trp_A_3]
apparent KD of MS2 coat protein (input ligand: arginine 13.2 mM): 9.62 nM | apparent KD of MS2 coat protein [1]: 16.8 nM | apparent KD of MS2 coat protein [3]: 13.8 nM

GCUGCCAUACGAAGGAGCGCUGGUGUAAUGAGGCGAACAUGAGGAUCACCCAUGUGGCAGAAGCAGGUAGGUCGCGUAUGGCAGC [EAB #15]
apparent KD of MS2 coat protein (input ligand: arginine 13.2 mM): 12.9 nM | apparent KD of MS2 coat protein (input ligand: none): 14.2 nM | apparent KD of MS2 coat protein [1]: 20.6 nM | apparent KD of MS2 coat protein [3]: 14.9 nM | apparent KD of MS2 coat protein [2]: 18.3 nM

GGAAGGACAGUUGAUACCAGUUUCAAAGGCGGUAAUCACUACAUGAGGAUCACCCAUGUCAACCCUUGGCAGCAAUAGACCGUGG [theeternabot_exclusion_MS2_Theo_B_6]
apparent KD of MS2 coat protein (input ligand: arginine 13.2 mM): 24 nM | apparent KD of MS2 coat protein [1]: 28.1 nM | apparent KD of MS2 coat protein [2]: 19.2 nM

GGAAUAACGAUUGAUACCAGCAUGUUAACAUGAGGAUCACCCAUGUUAAGGAUAACAUAAUGCCCUUGGCAGCAACGGAAACCCG [#23Same State - Theophylline B]
apparent KD of MS2 coat protein (input ligand: arginine 13.2 mM): 16.3 nM | apparent KD of MS2 coat protein [1]: 19.2 nM | apparent KD of MS2 coat protein [2]: 17.8 nM

GGACUAACCAGAAGGAGCGACGCGCAGAAACUGCAAAUUCCUCCACACGAGGAUCACCCGUGUCAGGUAGGUCGCUGGUUAGUCG
apparent KD of MS2 coat protein (input ligand: arginine 13.2 mM): 16.5 nM | apparent KD of MS2 coat protein (input ligand: none): 16.6 nM | apparent KD of MS2 coat protein [1]: 23 nM | apparent KD of MS2 coat protein [3]: 16.1 nM | apparent KD of MS2 coat protein [2]: 18.2 nM

GGACUAACCAGAAGGAGCGGCACGCAGAAACUGCAAAAUCCUCCACACGAGGAUCACCCGUGUCAGGUAGGUCGCUGGUUAGUCG
apparent KD of MS2 coat protein (input ligand: arginine 13.2 mM): 45.8 nM | apparent KD of MS2 coat protein (input ligand: none): 48.6 nM | apparent KD of MS2 coat protein [1]: 55 nM | apparent KD of MS2 coat protein [3]: 52.5 nM | apparent KD of MS2 coat protein [2]: 48.4 nM

GGAGUAGAUGCGGCCGCCACUUUCUCAAGACACUACAUGAGGAUCACCCAUGUCCAUUCUACACUAAGGACCGGGCAUCCCAUGG [Alaa]
apparent KD of MS2 coat protein (input ligand: arginine 13.2 mM): 36.8 nM | apparent KD of MS2 coat protein [1]: 182 nM | apparent KD of MS2 coat protein [3]: 192 nM

GGAGUAGGAAACUAUUCCAAUCCUCGUGAACGAGGACCGGUACGGCCGCCACUCGAUAAUUAAUAACAUGAGGAUCACCCAUGUA [Ex Tryptophan A 21]
apparent KD of MS2 coat protein (input ligand: arginine 13.2 mM): 36.6 nM | apparent KD of MS2 coat protein [1]: 80.4 nM | apparent KD of MS2 coat protein [3]: 89 nM

GGAUAGGACACGGCCGCCACUAGCUAGGAUACUAGCAACAUUUCCUCACAAGAGGAUCACCCUUGUAGGACCGGGUGUCCUAUCG
apparent KD of MS2 coat protein (input ligand: arginine 13.2 mM): 84.9 nM | apparent KD of MS2 coat protein (input ligand: none): 93.7 nM | apparent KD of MS2 coat protein [1]: 115 nM | apparent KD of MS2 coat protein [3]: 118 nM | apparent KD of MS2 coat protein [2]: 139 nM

GGAUAGGACACGGCCGCCACUAGCUAGGAUACUAGCAACAUUUGGGUACAUGAGGAUCACCCAUGUAGGACCGGGUGUCCUAUCG
apparent KD of MS2 coat protein (input ligand: arginine 13.2 mM): 64.4 nM | apparent KD of MS2 coat protein (input ligand: none): 63.7 nM | apparent KD of MS2 coat protein [1]: 117 nM | apparent KD of MS2 coat protein [3]: 85.5 nM | apparent KD of MS2 coat protein [2]: 107 nM
